The values that follow come from patent publication US20260209384A1 (Stanford University, published 2026).

Assay [1] concerns the target T1, recombinant human GPC2 (R&D Systems) (human, UniProt Q8N158 24-554, limits assumed, labelled with Dylight488 or Dylight650 in the flow cytometry assays; unlabelled in the ELISA).
T1 construct: extracellular domain; also called hGPC2; human Glypican-2
T1 sequence (looked up): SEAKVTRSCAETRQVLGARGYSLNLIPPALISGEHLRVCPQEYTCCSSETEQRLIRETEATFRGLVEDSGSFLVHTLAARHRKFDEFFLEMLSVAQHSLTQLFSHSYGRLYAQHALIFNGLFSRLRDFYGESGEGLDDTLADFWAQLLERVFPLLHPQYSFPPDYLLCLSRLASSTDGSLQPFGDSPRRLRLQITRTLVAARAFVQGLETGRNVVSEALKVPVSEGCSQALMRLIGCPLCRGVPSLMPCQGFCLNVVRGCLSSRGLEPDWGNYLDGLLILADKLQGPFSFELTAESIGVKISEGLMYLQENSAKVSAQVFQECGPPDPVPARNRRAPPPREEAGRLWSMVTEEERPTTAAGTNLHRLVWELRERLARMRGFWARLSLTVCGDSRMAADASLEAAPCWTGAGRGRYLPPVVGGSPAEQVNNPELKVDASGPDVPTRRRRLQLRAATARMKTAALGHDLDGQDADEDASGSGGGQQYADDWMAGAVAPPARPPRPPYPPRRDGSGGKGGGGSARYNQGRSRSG
In words: ELISA, antigen coated on plate, anti-human Fc-HRP detection. How it is done: (§1) Fully human GPC2.19-IgG1 antibody was transiently expressed in 293 FreeStyle cells. Antibody was isolated from culture supernatant using protein A beads (Fisher). Isolated antibody was washed using PBS and Amicon […] filter columns. Binding of GPC2.19-IgG1 to GPC2 antigen was measured via ELISA. Recombinant human and mouse GPC2 antigens were purchased from R&D Systems, dry milk was from BioRad. All other chemicals were biological grade. High absorbance 96-well ELISA plates were coated with antigen overnight using […] stock solution per well at 2 μg/ml. Experiments were performed at 4° C. Antigen coated plates were blocked using 3% milk in PBS and 0.5% TWEEN® 20 for 2 h. Blocked plates were incubated with one of the tested primary antibodies for 1 hour, washed 5 times (BioTek plate washer) and incubated with anti-human Fc-HRP (Sigma) as the secondary antibody for 1 hour. Secondary antibody was washed five times, the HRP substrate TMB (Sigma) was added and plate was incubated for 3 minutes. TMB oxidation was stopped with 2.5 M sulfuric acid. Plates' absorbance was measured on plate reader (BioRad) at 415 nm.
(ELISA stands for enzyme-linked immunosorbent assay.)

Assay [2] concerns the target T2, recombinant murine GPC2 (R&D Systems) (mouse, UniProt Q8BKV1 22-556, limits assumed, labelled with Dylight488 in the flow cytometry assay of FIG. 9B; unlabelled in the ELISA).
T2 construct: Bought recombinant protein; also called mGPC2; mouse GPC2
T2 sequence (looked up): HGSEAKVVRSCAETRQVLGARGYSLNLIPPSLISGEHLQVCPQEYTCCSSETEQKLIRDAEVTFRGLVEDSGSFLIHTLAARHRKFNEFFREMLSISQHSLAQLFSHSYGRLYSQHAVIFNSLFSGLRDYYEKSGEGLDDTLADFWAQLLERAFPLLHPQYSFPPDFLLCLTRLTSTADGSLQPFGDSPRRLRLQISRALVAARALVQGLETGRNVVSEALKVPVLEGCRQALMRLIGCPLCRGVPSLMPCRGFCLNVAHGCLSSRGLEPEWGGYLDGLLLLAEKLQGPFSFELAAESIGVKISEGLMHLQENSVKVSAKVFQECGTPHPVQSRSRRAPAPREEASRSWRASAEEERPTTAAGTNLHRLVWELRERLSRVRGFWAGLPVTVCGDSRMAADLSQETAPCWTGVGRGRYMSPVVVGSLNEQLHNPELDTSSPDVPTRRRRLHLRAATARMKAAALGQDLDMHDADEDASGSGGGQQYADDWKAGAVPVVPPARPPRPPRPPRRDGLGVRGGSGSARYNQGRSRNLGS
The description is as above. How it is done:
as §1

Assay [3] deals with T1, recombinant human GPC2 (R&D Systems). As to the kind of experiment: flow cytometry, CAR T cells stained with fluorescently labelled recombinant GPC2. From the text: Primary human T cells were isolated from healthy donors using the RosetteSep Human T cell Enrichment kit (Stem Cell Technologies) using buffy coats were derived from the Stanford Blood Center and processed according to the manufacturer's protocol using Lymphoprep density gradient medium and SepMate-50 tubes. Isolated T cells were cryopreserved in CryoStor CS10 cryopreservation medium (Stem Cell Technologies). Cryopreserved T cells were thawed and activated with Human T-Expander CD3/CD28 Dynabeads (Gibco) at a 3:1 beads: cell ratio in AIM-V media supplemented with 5% FBS, 10 mM HEPES, 2 mM 1-glutamine, 100 U/mL penicillin, and 100 μg/mL streptomycin (Gibco) and with 100 IU/ml of recombinant IL-2 (Preprotech). T cells were transduced with retroviral vector on days 2 and 3 post activation and anti-CD3/CD28 beads were removed on day 5. CAR T-cells were maintained at 0.3-1×10⁶ cells per mL in T cell medium with IL2. CAR expression was assessed by Flow Cytometry after incubation with soluble, recombinant, human GPC2 (R&D systems) labelled with Dylight488 or Dylight650. CAR T cells were used for in vitro assays or transferred into mice on day 10 post activation.
Data was collected with an LSR Fortessa X-20 (BD Bioscience) and analyzed using the FlowJo software. Cells were harvested, washed twice with FACS buffer (PBS supplemented with 2% FBS and 0.4% 0.5 M EDTA) and stained for 30 min in the dark on ice. Cells were washed 3 times with FACS buffer after each incubation step. Cells were gated on viable cells and singlet discrimination (FSC-A/FSC-H) was performed before assessment of antigen expression. Semiquantitative assessment of GPC2 antigen density in molecules per cell was estimated using the BD Quantibrite Kit per the manufacturer's protocol.
A general note: Flow cytometry measures light scatter and fluorescence of single cells or particles in a stream.

In assay [4] the target is T2, recombinant murine GPC2 (R&D Systems). In words: flow cytometry, CAR T cells stained with Dylight488-labelled murine GPC2.

As a reminder, the EC50 is the midpoint of the concentration-response curve.

B1: GPC2.19-IgG1 (antibody, V domains shown)
VH: QLQLQESGPGLVKPSETLSLTCTVSGGSISSSSYYWSWIRQPPGKGLEWIGSIYYSGSTYYNPSLKSRVTISVDTSKNQFSLKLSSVTAADTAVYYCARRVSGHPFDPWGQGTLVTVSS
VL: DIQMTQSPSSLSASIGDRVTITCQASQDISDYLNWYQQKPGKAPKLLIYDASNLETGVPSRFSGSGSGTDFTFTISSLQPEDVATYYCQQYDNLPITFGQGTKLEIKR
notes: also called GPC2.IgG1; fully human GPC2.19-IgG1 antibody
Take B1: the EC50 in assay [1] and in assay [2] was about 1 nM throughout.

B2: GPC2.27 CAR in VL-L-VH orientation with CD8a hinge-transmembrane domain and 41BBz signaling domain (other)
chain: EIVMTQSPATLSASVGDRVTIACRASQTISRYLNWYQQKPGKAPKLLIYAASSLQSGVSSRFSGSGSGTEFTLTISSLQPEDFATYFCQQTYSPPITFGQGTRLEIKRGGGGSGGGASGGGGSEVQLVESGPGLVKPSETLSLTCAVSGYSISSGYYWGWIRQPPGKGLEWIGSIYHSGSTYYNPSLKSRVTISVDTSKNQFSLKLSSVTAADTAVYYCASLPSRGGFDYWGQGTLVTVSSATTTPAPRPPTPAPTIASQPLSLRPEACRPAAGGAVHTRGLDFACDIYIWAPLAGTCGVLLLSLVITLYCKRGRKKLLYIFKQPFMRPVQTTQEEDGCSCRFPEEEEGGCELRVKFSRSADAPAYKQGQNQLYNELNLGRREEYDVLDKRRGRDPEMGGKPRRKNPQEGLYNELQKDKMAEAYSEIGMKGERRRGKGHDGLYQGLSTATKDTYDALHMQALPPR
notes: also called GPC2.27 VL-L-VH CAR
For the molecule B2, in assay [3], the binding result was “binds”.

B3: GPC2.19VLVH.28H-28TM.28z (other)
chain: DIQMTQSPSSLSASIGDRVTITCQASQDISDYLNWYQQKPGKAPKLLIYDASNLETGVPSRFSGSGSGTDFTFTISSLQPEDVATYYCQQYDNLPITFGQGTKLEIKRGGGGSGGGASGGGGSQLQLQESGPGLVKPSETLSLTCTVSGGSISSSSYYWSWIRQPPGKGLEWIGSIYYSGSTYYNPSLKSRVTISVDTSKNQFSLKLSSVTAADTAVYYCARRVSGHPFDPWGQGTLVTVSSAAAIEVMYPPPYLDNEKSNGTIIHVKGKHLCPSPLFPGPSKPFWVLVVVGGVLACYSLLVTVAFIIFWVRSKRSRLLHSDYMNMTPRRPGPTRKHYQPYAPPRDFAAYRSRVKFSRSADAPAYQQGQNQLYNELNLGRREEYDVLDKRRGRDPEMGGKPRRKNPQEGLYNELQKDKMAEAYSEIGMKGERRRGKGHDGLYQGLSTATKDTYDALHMQALPPR
notes: also called GPC2.28TM.28z CAR; GPC2.19 CAR with CD28 hinge-transmembrane domains and CD28 costimulatory domain
Consider B3, for which, in assay [3], the binding result is on record as “binds”.

B4: GPC2.27 CAR in VH-L-VL orientation with CD8a hinge-transmembrane domain and 41BBz signaling domain (other)
chain: EVQLVESGPGLVKPSETLSLTCAVSGYSISSGYYWGWIRQPPGKGLEWIGSIYHSGSTYYNPSLKSRVTISVDTSKNQFSLKLSSVTAADTAVYYCASLPSRGGFDYWGQGTLVTVSSGGGGSGGGASGGGGSEIVMTQSPATLSASVGDRVTIACRASQTISRYLNWYQQKPGKAPKLLIYAASSLQSGVSSRFSGSGSGTEFTLTISSLQPEDFATYFCQQTYSPPITFGQGTRLEIKRATTTPAPRPPTPAPTIASQPLSLRPEACRPAAGGAVHTRGLDFACDIYIWAPLAGTCGVLLLSLVITLYCKRGRKKLLYIFKQPFMRPVQTTQEEDGCSCRFPEEEEGGCELRVKFSRSADAPAYKQGQNQLYNELNLGRREEYDVLDKRRGRDPEMGGKPRRKNPQEGLYNELQKDKMAEAYSEIGMKGERRRGKGHDGLYQGLSTATKDTYDALHMQALPPR
notes: also called GPC2.27 VH-L-VL CAR
Regarding B4, the binding result in assay [3] is recorded as “binds”.

B5: GPC2.19VLVH.28H-28TM.41BBz (other)
chain: DIQMTQSPSSLSASIGDRVTITCQASQDISDYLNWYQQKPGKAPKLLIYDASNLETGVPSRFSGSGSGTDFTFTISSLQPEDVATYYCQQYDNLPITFGQGTKLEIKRGGGGSGGGASGGGGSQLQLQESGPGLVKPSETLSLTCTVSGGSISSSSYYWSWIRQPPGKGLEWIGSIYYSGSTYYNPSLKSRVTISVDTSKNQFSLKLSSVTAADTAVYYCARRVSGHPFDPWGQGTLVTVSSAAAIEVMYPPPYLDNEKSNGTIIHVKGKHLCPSPLFPGPSKPFWVLVVVGGVLACYSLLVTVAFIIFWVKRGRKKLLYIFKQPFMRPVQTTQEEDGCSCRFPEEEEGGCELRVKFSRSADAPAYKQGQNQLYNELNLGRREEYDVLDKRRGRDPEMGGKPRRKNPQEGLYNELQKDKMAEAYSEIGMKGERRRGKGHDGLYQGLSTATKDTYDALHMQALPPR
notes: also called GPC2.19 CAR with CD28 hinge-transmembrane domains and 41BB costimulatory domain
In the case of B5, in assay [3], the binding result is given as “binds”.

B6: GPC2.19VLVH.8aH-8aTM.41BBz (other)
chain: DIQMTQSPSSLSASIGDRVTITCQASQDISDYLNWYQQKPGKAPKLLIYDASNLETGVPSRFSGSGSGTDFTFTISSLQPEDVATYYCQQYDNLPITFGQGTKLEIKRGGGGSGGGASGGGGSQLQLQESGPGLVKPSETLSLTCTVSGGSISSSSYYWSWIRQPPGKGLEWIGSIYYSGSTYYNPSLKSRVTISVDTSKNQFSLKLSSVTAADTAVYYCARRVSGHPFDPWGQGTLVTVSSATTTPAPRPPTPAPTIASQPLSLRPEACRPAAGGAVHTRGLDFACDIYIWAPLAGTCGVLLLSLVITLYCKRGRKKLLYIFKQPFMRPVQTTQEEDGCSCRFPEEEEGGCELRVKFSRSADAPAYKQGQNQLYNELNLGRREEYDVLDKRRGRDPEMGGKPRRKNPQEGLYNELQKDKMAEAYSEIGMKGERRRGKGHDGLYQGLSTATKDTYDALHMQALPPR
notes: also called GPC2.19 CAR; GPC2.8aTM.41BBz CAR
For B6, the binding result in assay [4] and in assay [3] was “binds” each time.

B7: GPC2.19 CAR in VH-L-VL orientation with CD8a hinge-transmembrane domain and 41BBz signaling domain (other)
chain: QLQLQESGPGLVKPSETLSLTCTVSGGSISSSSYYWSWIRQPPGKGLEWIGSIYYSGSTYYNPSLKSRVTISVDTSKNQFSLKLSSVTAADTAVYYCARRVSGHPFDPWGQGTLVTVSSGGGGSGGGASGGGGSDIQMTQSPSSLSASIGDRVTITCQASQDISDYLNWYQQKPGKAPKLLIYDASNLETGVPSRFSGSGSGTDFTFTISSLQPEDVATYYCQQYDNLPITFGQGTKLEIKRATTTPAPRPPTPAPTIASQPLSLRPEACRPAAGGAVHTRGLDFACDIYIWAPLAGTCGVLLLSLVITLYCKRGRKKLLYIFKQPFMRPVQTTQEEDGCSCRFPEEEEGGCELRVKFSRSADAPAYKQGQNQLYNELNLGRREEYDVLDKRRGRDPEMGGKPRRKNPQEGLYNELQKDKMAEAYSEIGMKGERRRGKGHDGLYQGLSTATKDTYDALHMQALPPR
notes: also called GPC2.19 VH-L-VL CAR
As for B7, the binding result in assay [3] is given as “binds”.
